For one molecule, KM for the methyl acceptor peptide substrate, isoaspartyl methyltransferase activity (methanol vapor diffusion assay, 30°C, 0.2 M Bis-Tris pH 6.0, 14.5 μM SAM, 0.2–60 μM peptide) results are on record in article PMC7859441.

Starred links: 1 amine or outer side, 2 acyl side, 3 side chain; linkers in the order of their positions; H or OH if unused. Non-standard residues stand in square brackets, D forms with d. No end group written: not given here. βAsp = O=C(O)[C@H](CC(=O)[*:2])N[*:1]

The target in assay [1] is zebrafish Pcmtl (protein L-isoaspartyl methyltransferase paralog) (zebrafish).
In assay [2] the target is zebrafish Pcmt (protein L-isoaspartyl methyltransferase) (zebrafish) (UniProt Q92047).
Sequence of UniProt Q92047 (Q92047 whole entry): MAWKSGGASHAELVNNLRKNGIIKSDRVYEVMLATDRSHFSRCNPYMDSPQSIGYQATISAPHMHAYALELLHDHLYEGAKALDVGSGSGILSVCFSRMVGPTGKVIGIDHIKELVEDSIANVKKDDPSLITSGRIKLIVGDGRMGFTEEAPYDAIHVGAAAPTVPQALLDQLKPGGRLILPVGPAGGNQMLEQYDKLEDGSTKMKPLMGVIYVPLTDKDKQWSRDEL

As for KASA[βAsp]LAKY [isoaspartyl substrate peptide KASAisoDLAKY], the KM for the methyl acceptor peptide substrate, isoaspartyl methyltransferase activity (methanol vapor diffusion assay, 30°C, 0.2 M Bis-Tris pH 6.0, 14.5 μM SAM, 0.2–60 μM peptide) in assay [1] turned out to be 3.6 μM; in assay [2], 4.2 μM.
